US20180092966A1 (CSL, published 2018)
Blank lines part the entries; values can stand above or below the molecule they belong to.

Legend:
[1] = biological target: VWF-FP (albumin-fused von Willebrand Factor) (human); experiment: covalent-FVIII ELISA over FVIII antigen ELISA
[2] = biological target: VWF-FP (albumin-fused von Willebrand Factor) (human); experiment: covalent-FVIII ELISA over FVIII activity assay
[3] = biological target: T1, VWF-FP H817C mutant (albumin-fused von Willebrand Factor) (human); experiment: ELISA of co-expression supernatant: anti-VWF capture, 350 mM CaCl2 wash, anti-FVIII detection
T1 construct: Stably expressed in CHO cells with furin co-transfected; also called VWF-FP mutant H817C; Cys residue at VWF aa position 817; not shown: linker between VWF and albumin, made in analogy to WO 2009/156137
Protocol: Cell culture supernatant samples (10 ml) from transient transfections were concentrated with Amicon Ultracell-30K (Millipore UFC903024; 3000 g centrifugation). FVIII covalently attached to VWF-FP in culture supernatant (concentrates) was determined by a standard ELISA. Briefly, microplates were incubated with 100 μL per well of the capture antibody (rabbit anti human VWF-IgG, Dako A0082 [Dako, Hamburg, Germany], diluted 1:2000 in buffer A [Sigma C3041, Sigma-Aldrich, Munich, Germany]) overnight at ambient temperature. After washing plates three times with buffer B (Sigma T9039), each well was incubated with 200 μL buffer C (Sigma T6789) for 1.5 hours at ambient temperature (blocking). After another three wash steps with buffer B, serial dilutions of the test sample in buffer B as well as serial dilutions of a control preparation of covalently linked FVIII-VWF-FP, (2.0-0.03 arbitrary U/ml in buffer B (we call these “arbitrary units” as they may not correspond to the standard FVIII units as determined using Standard Human Plasma); volumes per well: 100 μL) were incubated for 1.5 hours at ambient temperature. After three wash steps with buffer B, 200 μL of 350 mM CaCl₂ were added to each well and incubated for 1 hour at ambient temperature. CaCl₂ was removed (without washing) and additional 200 μl were added to each well and incubated further for 1 hour. After three wash steps with buffer B 100 μL of a 1:2 dilution in buffer B of the detection antibody (Detecting Antibody for FVIII:C, peroxidase labelled, Cedarlane CL20035K-D) were added to each well and incubated for 1 hour at ambient temperature. After three wash steps with buffer B, 100 μL of substrate solution (OUVF, Siemens Healthcare Diagnostics) were added per well and incubated for 15 minutes at ambient temperature in the dark. Addition of 100 μL undiluted stop dilution (OSFA, Siemens Healthcare Diagnostics) prepared the samples for reading in a suitable microplate reader at 450 nm wavelength. Concentrations of the test samples were then calculated using the standard curve with the control preparation.

[4] = biological target: T1, VWF-FP H817C mutant (albumin-fused von …); experiment: covalent-FVIII ELISA over FVIII antigen ELISA
[5] = biological target: T1, VWF-FP H817C mutant (albumin-fused von …); experiment: covalent-FVIII ELISA over FVIII activity assay

T1 sequence (chain, as listed by the source H817C H817C): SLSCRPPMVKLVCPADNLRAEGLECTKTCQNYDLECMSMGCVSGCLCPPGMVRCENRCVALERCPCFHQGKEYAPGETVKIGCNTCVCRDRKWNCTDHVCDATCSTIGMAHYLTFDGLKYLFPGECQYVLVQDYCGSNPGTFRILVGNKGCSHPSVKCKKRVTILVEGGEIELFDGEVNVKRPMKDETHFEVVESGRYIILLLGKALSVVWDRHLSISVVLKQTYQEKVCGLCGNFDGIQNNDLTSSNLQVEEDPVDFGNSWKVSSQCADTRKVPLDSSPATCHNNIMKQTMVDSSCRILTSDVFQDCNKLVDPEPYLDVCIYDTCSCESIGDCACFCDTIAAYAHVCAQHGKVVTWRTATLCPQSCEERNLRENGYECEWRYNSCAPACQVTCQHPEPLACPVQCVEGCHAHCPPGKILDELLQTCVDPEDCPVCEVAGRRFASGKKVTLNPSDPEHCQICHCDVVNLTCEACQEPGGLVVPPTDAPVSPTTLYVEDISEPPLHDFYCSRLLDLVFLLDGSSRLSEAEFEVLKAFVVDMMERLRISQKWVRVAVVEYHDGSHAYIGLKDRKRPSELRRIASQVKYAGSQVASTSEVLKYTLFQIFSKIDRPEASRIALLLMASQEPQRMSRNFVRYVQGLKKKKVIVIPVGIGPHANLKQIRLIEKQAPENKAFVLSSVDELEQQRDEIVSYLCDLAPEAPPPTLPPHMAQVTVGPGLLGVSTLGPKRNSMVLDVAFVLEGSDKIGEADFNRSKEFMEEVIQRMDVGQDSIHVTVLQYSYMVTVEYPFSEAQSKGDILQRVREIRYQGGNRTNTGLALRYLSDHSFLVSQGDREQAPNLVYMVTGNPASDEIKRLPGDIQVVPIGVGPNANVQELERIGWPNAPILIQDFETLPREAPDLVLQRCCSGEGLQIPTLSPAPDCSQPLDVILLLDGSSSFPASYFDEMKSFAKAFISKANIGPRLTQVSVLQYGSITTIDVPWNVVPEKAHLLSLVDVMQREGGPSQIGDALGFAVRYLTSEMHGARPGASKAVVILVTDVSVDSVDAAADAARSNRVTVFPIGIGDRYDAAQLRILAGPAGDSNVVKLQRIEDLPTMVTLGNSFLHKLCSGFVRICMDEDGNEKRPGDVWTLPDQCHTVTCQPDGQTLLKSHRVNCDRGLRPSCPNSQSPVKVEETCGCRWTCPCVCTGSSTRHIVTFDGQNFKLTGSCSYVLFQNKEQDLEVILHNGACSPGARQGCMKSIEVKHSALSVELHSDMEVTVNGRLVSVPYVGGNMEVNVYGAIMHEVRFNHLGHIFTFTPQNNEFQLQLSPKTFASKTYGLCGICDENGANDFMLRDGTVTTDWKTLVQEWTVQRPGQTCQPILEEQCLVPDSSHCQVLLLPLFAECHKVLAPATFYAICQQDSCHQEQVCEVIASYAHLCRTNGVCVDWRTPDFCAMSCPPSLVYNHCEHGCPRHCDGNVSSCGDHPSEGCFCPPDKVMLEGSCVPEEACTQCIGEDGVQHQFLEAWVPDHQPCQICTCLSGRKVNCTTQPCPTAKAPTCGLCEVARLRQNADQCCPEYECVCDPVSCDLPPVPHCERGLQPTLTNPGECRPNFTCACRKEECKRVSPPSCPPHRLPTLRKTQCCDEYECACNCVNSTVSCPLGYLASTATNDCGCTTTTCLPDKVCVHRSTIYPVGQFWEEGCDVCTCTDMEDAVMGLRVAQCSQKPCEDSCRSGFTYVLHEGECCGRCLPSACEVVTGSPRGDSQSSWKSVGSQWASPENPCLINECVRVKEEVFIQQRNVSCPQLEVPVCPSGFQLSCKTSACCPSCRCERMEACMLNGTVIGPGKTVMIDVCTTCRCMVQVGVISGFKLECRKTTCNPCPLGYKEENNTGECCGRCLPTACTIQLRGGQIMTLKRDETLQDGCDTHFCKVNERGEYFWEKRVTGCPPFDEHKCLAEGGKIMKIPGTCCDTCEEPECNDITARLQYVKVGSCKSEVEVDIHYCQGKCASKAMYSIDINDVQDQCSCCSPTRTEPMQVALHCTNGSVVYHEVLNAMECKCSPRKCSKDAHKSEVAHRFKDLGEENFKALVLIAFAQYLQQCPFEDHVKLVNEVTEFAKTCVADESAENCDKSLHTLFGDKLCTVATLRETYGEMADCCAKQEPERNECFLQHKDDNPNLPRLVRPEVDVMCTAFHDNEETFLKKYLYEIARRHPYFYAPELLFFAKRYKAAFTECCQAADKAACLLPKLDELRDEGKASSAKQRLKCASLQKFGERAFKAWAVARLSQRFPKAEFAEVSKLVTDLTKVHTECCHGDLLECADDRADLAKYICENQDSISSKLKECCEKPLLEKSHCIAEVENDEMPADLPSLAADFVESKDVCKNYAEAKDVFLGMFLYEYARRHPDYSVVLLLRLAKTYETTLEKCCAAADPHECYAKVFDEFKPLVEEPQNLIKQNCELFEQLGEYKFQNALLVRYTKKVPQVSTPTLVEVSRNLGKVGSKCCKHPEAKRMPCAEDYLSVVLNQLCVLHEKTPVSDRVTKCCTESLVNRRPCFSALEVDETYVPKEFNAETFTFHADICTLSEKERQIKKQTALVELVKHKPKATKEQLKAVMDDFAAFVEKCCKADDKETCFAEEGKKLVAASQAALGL
VWF-FP (albumin-fused von Willebrand Factor) (human), sequence (chain, as listed by the source): as the sequence (chain, as listed by the source H817C H817C) above, with C54H counted along it

ratio of covalent FVIII to total FVIII antigen [1]: 7.47
ratio of covalent FVIII to total FVIII activity [2]: 5.78
Molecule: FVIII-SingleChain with VWF-derived C3-C4-C5-C6-CK sequence added to its C-terminus and a thrombin cleavage site between them

covalent FVIII [3]: 292 amU/ml
ratio covalent FVIII/Total FVIII antigen [4]: 0.33
ratio covalent FVIII/Total FVIII activity [5]: 1.02
B1: Factor VIII SingleChain N2129C mutant (other)
chain: ATRRYYLGAVELSWDYMQSDLGELPVDARFPPRVPKSFPFNTSVVYKKTLFVEFTDHLFNIAKPRPPWMGLLGPTIQAEVYDTVVITLKNMASHPVSLHAVGVSYWKASEGAEYDDQTSQREKEDDKVFPGGSHTYVWQVLKENGPMASDPLCLTYSYLSHVDLVKDLNSGLIGALLVCREGSLAKEKTQTLHKFILLFAVFDEGKSWHSETKNSLMQDRDAASARAWPKMHTVNGYVNRSLPGLIGCHRKSVYWHVIGMGTTPEVHSIFLEGHTFLVRNHRQASLEISPITFLTAQTLLMDLGQFLLFCHISSHQHDGMEAYVKVDSCPEEPQLRMKNNEEAEDYDDDLTDSEMDVVRFDDDNSPSFIQIRSVAKKHPKTWVHYIAAEEEDWDYAPLVLAPDDRSYKSQYLNNGPQRIGRKYKKVRFMAYTDETFKTREAIQHESGILGPLLYGEVGDTLLIIFKNQASRPYNIYPHGITDVRPLYSRRLPKGVKHLKDFPILPGEIFKYKWTVTVEDGPTKSDPRCLTRYYSSFVNMERDLASGLIGPLLICYKESVDQRGNQIMSDKRNVILFSVFDENRSWYLTENIQRFLPNPAGVQLEDPEFQASNIMHSINGYVFDSLQLSVCLHEVAYWYILSIGAQTDFLSVFFSGYTFKHKMVYEDTLTLFPFSGETVFMSMENPGLWILGCHNSDFRNRGMTALLKVSSCDKNTGDYYEDSYEDISAYLLSKNNAIEPRSFSQNSRHRSTRQKQFNATTIPENTTLQSDQEEIDYDDTISVEMKKEDFDIYDEDENQSPRSFQKKTRHYFIAAVERLWDYGMSSSPHVLRNRAQSGSVPQFKKVVFQEFTDGSFTQPLYRGELNEHLGLLGPYIRAEVEDNIMVTFRNQASRPYSFYSSLISYEEDQRQGAEPRKNFVKPNETKTYFWKVQHHMAPTKDEFDCKAWAYFSDVDLEKDVHSGLIGPLLVCHTNTLNPAHGRQVTVQEFALFFTIFDETKSWYFTENMERNCRAPCNIQMEDPTFKENYRFHAINGYIMDTLPGLVMAQDQRIRWYLLSMGSNENIHSIHFSGHVFTVRKKEEYKMALYNLYPGVFETVEMLPSKAGIWRVECLIGEHLHAGMSTLFLVYSNKCQTPLGMASGHIRDFQITASGQYGQWAPKLARLHYSGSINAWSTKEPFSWIKVDLLAPMIIHGIKTQGARQKFSSLYISQFIIMYSLDGKKWQTYRGNSTGTLMVFFGCVDSSGIKHNIFNPPIIARYIRLHPTHYSIRSTLRMELMGCDLNSCSMPLGMESKAISDAQITASSYFTNMFATWSPSKARLHLQGRSNAWRPQVNNPKEWLQVDFQKTMKVTGVTTQGVKSLLTSMYVKEFLISSSQDGHQWTLFFQNGKVKVFQGNQDSFTPVVNSLDPPLLTRYLRIHPQSWVHQIALRMEVLGCEAQDLY
notes: Single-chain FVIII with partial B-domain deletion; also called FVIII-SC N2129C; Cys residue at FVIII aa position 2129
